Assay results taken from PMC3341351, “Down-Regulation of GABAA Receptor via Promiscuity with the Vasoactive Peptide Urotensin II Receptor. Potential Involvement in Astrocyte Plasticity” (PLoS ONE, 2012).

Experiments:
[1] = test system: GABAAR in cerebellar astrocytes (UT co-expressed); assay: Whole-cell patch-clamp of isoguvacine (Iso)-evoked depolarization/chloride current in cerebellar astrocytes co-cultured with granule neurons; format: cell-based, rat; settings: Iso 10^−4 M; n = 78
Method: (§1) Primary Cell Culture of astrocytes and astrocyte-neurone co-culture
(§2) Primary cultures of astrocytes were prepared as previously described. Briefly, cerebellum from 7-day-old (P7) Wistar rats were collected in DMEM/Ham-F12 (2∶1, v/v) culture medium supplemented with 2 mM glutamine, 1% insulin, 5 mM HEPES, 0.4% D(+)-glucose and 1% of the antibiotic-antimycotic solution. The tissues were disaggregated mechanically with a syringue equipped with a 1-mm gauge needle, and filtered through a 100-µm pore size mesh filter (Falcon, Becton Dickinson, Grenoble, France). Dissociated cells were resuspended in culture medium supplemented with 10% heat-inactivated FBS and seeded in 150-cm^2 culture flasks (Falcon) at a density of 20×10^6 cells/flask. Cells were incubated at 37°C in a humidified atmosphere (5% CO2) and the medium was changed twice a week. When cultures were confluent, the flasks were gently shaken on an orbital shaker at […] for 2 h. Dislodged cells were discarded and a second step of purification was performed at […] for 14–16 h. Remaining adhesive cells were collected by trypsination, centrifuged (800 g, 10 min) and plated in 150-cm^2 flasks. Suspended astrocytes were harvested and seeded in 24-well poly-L-lysine-coated plates. The purity of the cultures was previously assessed by counting the percentage of astrocytes immunostained with GFAP antibodies. The enriched cultures contained >99% astrocytes.
(§3) For astrocyte-neuron co-culture, granule cell cultures were prepared from cerebella of P7 Wistar rats as described previously. Isolated cells were plated on 14-mm culture dishes coated with poly-L-lysine (5 mM) at a density of 1.5×10^6 cells/dish and incubated at 37°C in a humidified atmosphere (5% CO2) for 1 to 10 days before use. Culture medium consisted of DMEM/Ham's F12 (75%/25%) supplemented with 10% FBS, 2 mM glutamine, 5 µg/ml insulin, 25 mM KCl and 1% of antibiotic-antimycotic solution. Co-cultures are obtained by seeding granule cells (1.5×10^6 cells/ml) on cerebellar astrocytes plated in 24-well plates after 12 hours. Co-cultures are maintained in the specific medium for neuron and incubated at 37°C in an humidified atmosphere (5% CO2) for several days.
(§4) The conventional whole-cell configuration of the patch-clamp technique was used to study the GABA-gated currents in astrocytes and granule neurons, UT stably transfected CHO, CHO-UT, and CHO transiently transfected with diverse variants of UT and GABAAR subunits. After 24-h transfection, cell culture coverslips were placed in a small chamber (1.5 ml) on a stage of a right microscope DMLFSA (Leica, Heidelberg, Germany) and superfused continuously with the following bath solution containing (in mM): NaCl, 150; KCl, 2.5; HEPES, 5; CaCl2, 2; MgCl2, 1; glucose, 10 (pH 7.4 adjusted with NaOH). The patch pipettes were fabricated from 1.5 mm (outer diameter) soft glass tubes on a two-step vertical pipette puller (List-Medical, L/M-3P-A, Darmstadt, Germany). […] ATP and GTP were added to the internal solution used to fill electrode just before recording. All recordings were obtained at RT with cells voltage-clamped at −70 mV. The GABAA receptor agonist isoguvacine was prepared in the extracellular solution and was applied to cells by pneumatic pressure ejection. To prevent desenzitization, isoguvacine was more often ejected during 5 s at 2-min intervals. ATP, GTP, or guanosine 5′-O-(2-thiodiphosphate) (GDPβS) were administered through the patch pipette solution. We investigated the effect of competitive inhibition of GDP-GTP exchange by including GDPβS in the pipette solution (in addition to the normal amount of GTP). For GDPβS and the KIC, immediately following patch rupture, GABA current recordings were performed and the experiment was commenced after an equilibration period of 15 min. […]

[2] = target: T1, GABAAR in cerebellar astrocytes (UT co-expressed) (Rattus norvegicus, UniProt P49684); assay: as above; format: cell-based
T1 construct: Astrocytes, recognized by strong GFAP staining show UT immunoreactivity; endogenous in cells; host or cells: primary rat (P7 Wistar) cerebellar astrocytes co-cultured with cerebellar granule neurons
T1 sequence (P49684 1-386): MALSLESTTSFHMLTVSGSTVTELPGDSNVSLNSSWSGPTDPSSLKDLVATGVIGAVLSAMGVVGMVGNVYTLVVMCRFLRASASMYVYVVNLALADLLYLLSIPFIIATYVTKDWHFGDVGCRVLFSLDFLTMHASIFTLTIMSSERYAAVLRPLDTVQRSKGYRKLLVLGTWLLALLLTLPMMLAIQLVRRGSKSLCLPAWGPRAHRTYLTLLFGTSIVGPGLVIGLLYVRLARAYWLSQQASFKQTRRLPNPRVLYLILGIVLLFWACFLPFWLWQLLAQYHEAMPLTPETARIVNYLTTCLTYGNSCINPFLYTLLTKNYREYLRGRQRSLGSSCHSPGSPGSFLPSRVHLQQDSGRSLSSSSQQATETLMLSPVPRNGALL
Method: as §1, §2, §3, §4

Row | Molecule | Cells responding to isoguvacine, astrocytes cultured with granule neurons [1] [%] | Direct current activated ([2]; UII 10^−8 M, in some cells) | Recovery of the GABAAR current inhibition during washout ([2]; astrocytes)
1 | O=C(O)C1=CCNCC1 [Iso, isoguvacine] | 48 |  | 
2 | UII: Urotensin II, species not stated at that place (rUII in astrocytes, hUII in CHO and human cells) |  | activated a small inward current | hardly recovered during washout
